B1: 214N: single substitution S214N in SEQ ID NO:2 (protein)
chain: MGPTPTATAAGAAVAAASAAEQAAFRLVGHRNFVRFNPRSDRFQTLAFHHVELWCADAASAAGRFSFALGVPLAARSDLSTGNSAHASLLLRSGSLSLLFTAPYAHGADAATAALPSFSAAAARRFAADHGLAVRAVALRVADAEDAFRASVAAGARPAFGPVDLGRGFRLAEVELYGDVVLRYVSYPDGAAGEPFLPGFEGVASPGAADYGLNRFDHIVGNVPELAPAAAYMAGFTGFHEFAEFTTEDVGTTESGLNSMALANNSENVLLPLNEPVHGTKRRSQIQTFLDHHGGPGVQHIALASDDVLRTLREMRARSAMGGFEFLPPPLSDYYDGVRRCAGDVLTEAQINECQELGVMVDRDDQGVLLQIFTKPVGDRPTFFLEIIQRIGCMEKDEKGQEYQKGGCGGFGKGNFGQLFKSIEDYEKSLEAKQAAAAATAQGS
modifications: Zea mays variant form created by artificial means.
B2: 356K: single substitution E356K in SEQ ID NO:2 (protein)
chain: B1 chain with N214S, E356K
modifications: Zea mays variant form created by artificial means.
B3: 158K: single substitution P158K in SEQ ID NO:2 (protein)
chain: B1 chain with P158K, N214S
modifications: Zea mays variant form created by artificial means.
B4: 385I: single substitution L385I in SEQ ID NO:2 (protein)
chain: B1 chain with N214S, L385I
modifications: Zea mays variant form created by artificial means.
B5: 356R: single substitution E356R in SEQ ID NO:2 (protein)
chain: B1 chain with N214S, E356R
modifications: Zea mays variant form created by artificial means.

Positions count from the first letter of the chain named. Names may count otherwise.

We go through five molecules from patent US11015206B2, “Compositions and methods comprising sequences having hydroxyphenylpyruvate dioxygenase (HPPD) activity” (PIONEER HI-BRED INTERNATIONAL, INC., priority 2014, dated 2021).

One series has as its system 4-hydroxyphenylpyruvate dioxygenase (HPPD). Kind of series: Estimate of kcat from initial rate at saturating hydroxyphenylpyruvate without inhibitor (ON rate ratio assay). The note with it: Table 5; single substitutions in Round 7 variant 9070 (SEQ ID NO:2); estimate from initial rate at saturating hydroxyphenylpyruvate without inhibitor. It counts as biochemical, Z. mays. Put shortly: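 kcat was estimated from the initial reaction rate with known enzyme level (60 or 120 nM HPPD). Hydroxyphenylpyruvate was at a saturating 100 μM, with no inhibitor present.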
Regarding B1, the kcat (commonly the maximal rate divided by the concentration of active sites) is 0.59 s⁻¹.
The same measure, in the same setting: the same measure for B2: 0.647 s⁻¹.
On the same count and under the same terms, the same measure for B3: 0.84 s⁻¹; for B4: 0.458 s⁻¹; for B5: 0.652 s⁻¹.

The test system is the same in the next series. Kind of series: OFF rate ratio: release of inhibitor from pre-formed enzyme-inhibitor complex. It counts as biochemical, Z. mays. The settings on record: Table 5; tembotrione. The method, boiled down:
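Inhibitor release from pre-formed complex (enzyme 7.2 μM, inhibitor 8 μM, 1 h RT) tracked as accelerating HPPD activity at 320 nm over 12 min, coupled via 50 nM HGD with 100 μM HPP at pH 7. OFF rate ratio: steady-state velocity relative to uninhibited initial velocity.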
On to B1, for which the “OFF ratio (parameters with tembotrione)” value worked out at 0.19.
Same read-out and setting: the same measure for B2: 0.21.
On the same count and under the same terms, the same measure for B3: 0.27; for B4: 0.27; for B5: 0.21.

A further series has the same test system. Kind of series: Insensitivity parameter (ON × OFF) and trait fitness (ON × OFF × kcat/KM or × kcat). It counts as biochemical, Z. mays. The settings on record: DKN (diketonitrile form of isoxaflutole). Put shortly:
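Trait fitness combines catalysis and insensitivity as kcat/KM × ON rate ratio × OFF rate ratio. The insensitivity parameter is the product of ON and OFF rate ratios, used in place of KD because the ON rate ratio is inverse.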
For the molecule B1, the “Insensitivity parameter, ON × OFF” value is reported as 0.33.
The same measure, in the same setting: the same measure for B2: 0.25; for B3: 0.38; for B4: 0.41.
As to B5, the “Insensitivity parameter, ON × OFF” value is recorded as 0.21.

Staying with this series, now noted: DKN (isoxaflutole diketonitrile).
As for B1, the “ON × OFF × kcat/km fold vs Round 7, variant 9070” value (from here on “ON × OFF × kcat/km fold”) turned out to be 1.4.
Same read-out and setting: then B2, with 1.1.
Turning to B3, the “ON × OFF × kcat/km fold” value worked out at 1.0.
On the same count and under the same terms, then B4, with 1.2.
As to B5, the “ON × OFF × kcat/km fold” value is 1.1.

The series is the same for the next values; noted with them: Mesotrione; Table 6.
Regarding B1, the “Insensitivity parameter, ON × OFF” value was found to be 0.48.
The same measure, in the same setting: the same measure for B2: 0.48; for B3: 0.54.
On the same count and under the same terms, then B4, with 0.56; and B5, with 0.44.

Staying with this series, now noted: Sulco (sulcotrione).
In the case of B1, the “ON × OFF × kcat/km fold” value is 1.1.
On the same count and under the same terms, then B2, with 1.1; and B3, with 0.9; and B4, with 1.1.
Still for that read-out and setting: the same measure for B5: 1.1.

Still in this series, the particulars now being: Sulcotrione.
On to B1, for which the “Insensitivity parameter, ON × OFF” value was 0.59.
Same read-out and setting: the same measure for B2: 0.55; for B3: 0.63.
Still for that read-out and setting: the same measure for B4: 0.70.
On the same count and under the same terms, then B5, with 0.53.

Still in this series, the particulars now being: Table 5; tembotrione.
For the molecule B1, the “ON × OFF × kcat, Value” is 5.04.
Same read-out and setting: the same measure for B2: 6.18; for B3: 10.44; for B4: 5.55.
Same read-out and setting: then B5, with 5.97.

Staying with this series, now noted: Table 5; tembotrione; fold vs maize wild type HPPD.
As to B1, the “ON × OFF × kcat, Fold vs wt” value came out at 4.71 and the “ON × OFF, fold vs wt” value came to 27.9.
In the same order, the values of B2 are 5.78 and 31.2.
Consider B3, for which the “ON × OFF × kcat, Fold vs wt” value is given as 9.76 and the “ON × OFF, fold vs wt” value stood at 40.6.
The corresponding values for B4 are 5.18 and 39.5.
The corresponding values for B5 are 5.58 and 30.0.

Staying with this series, now noted: Table 5; tembotrione; insensitivity parameter.
Regarding B1, the “ON × OFF (parameters with tembotrione)” value was found to be 0.14.
B2: the “ON × OFF (parameters with tembotrione)” value is given as 0.16.
Take B3: the “ON × OFF (parameters with tembotrione)” value is given as 0.21.
The same measure, in the same setting: the same measure for B4: 0.20; for B5: 0.15.

Staying with this series, now noted: Tembotrione.
With B1, the “Insensitivity parameter, ON × OFF” value was found to be 0.25.
Take B2: the “Insensitivity parameter, ON × OFF” value stood at 0.18.
On the same count and under the same terms, then B3, with 0.29; and B4, with 0.28; and B5, with 0.16.

Still in this series, the particulars now being: Topra (topramezone).
In the case of B1, the “ON × OFF × kcat/km fold” value is 1.2.
Still for that read-out and setting: then B2, with 0.9.
For B3, the “ON × OFF × kcat/km fold” value stood at 1.1.
On the same count and under the same terms, the same measure for B4: 1.2; for B5: 1.1.

Still in this series, the particulars now being: Topramezon.
On to B1, for which the “Insensitivity parameter, ON × OFF” value is on record as 0.32.
Same read-out and setting: the same measure for B2: 0.23; for B3: 0.37; for B4: 0.38.
On the same count and under the same terms, then B5, with 0.24.

Staying with this series, now noted: meso (mesotrione).
As for B1, the “ON × OFF × kcat/km fold” value is listed as 1.1.
Same read-out and setting: the same measure for B2: 1.2.
Same read-out and setting: then B3, with 1.0; and B4, with 1.1; and B5, with 1.1.

The same series, now with this note: tembo (tembotrione).
As to B1, the “ON × OFF × kcat/km fold” value is 1.3.
On the same count and under the same terms, then B2, with 1.2; and B3, with 1.3.
Still for that read-out and setting: the same measure for B4: 1.3; for B5: 1.2.

Another series has the same test system. Kind of series: ON rate ratio: HPPD reaction rate with vs without inhibitor in the 70 to 90 second interval. It counts as biochemical, Z. mays. The settings on record: Table 5; tembotrione. The method, boiled down:
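Indicator of inhibitor on-rate: reaction velocity in the 70 to 90 second window with 4 μM inhibitor divided by that without. Reactions contained 100 μM HPP and 60 or 120 nM HPPD; slower binding gives a larger ratio.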
Take B1: the “ON ratio (parameters with tembotrione)” value was 0.76.
The same measure, in the same setting: the same measure for B2: 0.75; for B3: 0.77.
On the same count and under the same terms, the same measure for B4: 0.75.
The same measure, in the same setting: the same measure for B5: 0.75.

The test system is the same in another series. Kind of series: HPPD activity coupled assay with HGD; substrate saturation kinetic parameters (kcat, KM). It counts as biochemical, Z. mays. The note with it: Table 6. As to the method:
Wild type and shuffled variant genes were cloned into pVER7062, a modified version of pET24a(+)(Novagen), which places six histidine residues at the N-terminus of the expressed protein. Vectors were electroporated into E. coli host strain BL21(DE3). Cells were grown at 30 C in rich medium such as 2×YT containing the selection antibiotic, kanamycin. At a density of about 0.6 OD600, IPTG was added to 0.2 mM, the temperature was reduced to 16 C and growth continued for another 24 hrs. Cells were harvested by centrifugation and stored at −80 C. Cell pellets were lysed in BPER (Pierce) protein extraction reagent containing 0.2 mg/ml lysozyme, 1 mM dithiothreitol, protease inhibitor cocktail (Sigma, bacterial cocktail) and endonuclease. Insoluble cellular debris was removed by centrifugation. HPPD protein was purified from the soluble protein solution by affinity chromatography on the nickel form of nitrilotriacetic acid (Ni-NTA) resin (Qiagen). Protein concentrations were determined by the Bradford method, as supplied by Bio-Rad.
HPPD catalyzes the conversion of 4-hydroxyphenylpyruvate (HPP) to homogentisate (FIG. 17). […] However, the product of the ensuing reaction in tyrosine metabolism, maleylacetoacetate, absorbs strongly at 320 nm. Furthermore, the enzyme catalyzing that reaction is also a dioxygenase having similar mechanism and buffer requirements as HPPD, making homogentisate dioxygenase (HGD) an ideal partner in a coupled assay, as shown.
The HDG gene from Pseudomonas aeruginosa (Amaya (2004) Arch Biochem Biophys 421, 135-142) was cloned into pVER7062 and electroporated into E. coli strain BL21(DE3). The enzyme was produced by methods similar to those described for HPPD. The purified enzyme has a KM for homogentisate of 23 μM and a kcat of 100/sec, properties highly suited for instantly converting the homogentisate produced by HPPD to maleylacetoacetate.
HPPD activity was measured by placing an aliquot (e.g., 6 μl) of the substrate HPP at 50-fold the desired final concentration into the wells of a low UV-absorbing assay plate. Reactions were started by adding a mixture (e.g., 294 μl) containing 25 mM Hepes, pH 7, 2 mM ascorbate, 10 μM FeSO4, 1 to 100 μM HPP, 50 nM HGD and 5 to 240 nM HPPD. Absorbance at 320 nm was monitored continuously in a plate-reading spectrophotometer (Spectramax, Molecular Devices).
The catalytic performance of wild-type HPPD and variants generated by shuffling was assessed by determining the substrate saturation kinetic parameters. The Michaelis-Menten kinetics protocol of the Spectramax software was customized for HPP concentrations ranging from 3.33 μM to 100 μM. Reaction rates were measured as described above for each concentration of HPP. The software returns values of KM and Vmax using the Lineweaver-Burke transformation of the Michaelis-Menten equation.
For the molecule B1, the Km (usually the concentration of substrate that gives half-maximal velocity) turned out to be 3.62 µM.
Same read-out and setting: the same measure for B2: 2.6 µM.
As for B3, the Km was 2.49 µM.
With B4, the Km was 2.29 µM.
For B5, the Km worked out at 2.89 µM.

Staying with this series, now noted: Table 6; single substitutions in SEQ ID NO:2.
As for B1, the turnover number (kcat) stood at 1.41 s⁻¹.
Still for that read-out and setting: the same measure for B2: 1.1 s⁻¹.
As for B3, the kcat stood at 0.785 s⁻¹.
The same measure, in the same setting: the same measure for B4: 0.768 s⁻¹; for B5: 1.32 s⁻¹.
